Test [1] addresses GmSKRP1 (protein used for isothermal titration calorimetry) (soybean). As to the kind of experiment: ITC; 40 μM GmSKRP1 in the cell titrated with 400 μM PsAvr3c from the syringe; 25 °C; 20 mM HEPES pH 7.5, 200 mM NaCl; one-site binding model; three independent experiments.
For test [2] the target is unchanged. Described as above. The source holds these as a separate data set.

Kd data for one substance are collected here from paper PMC5727057.

Several values for one entry are separate records, joined by “and”; a condition that tells them apart may be missing. Equal values may be shown once. Read-outs that look alike come from different tables or passages of the source.

Consider “PsAvr3c (protein used for isothermal titration calorimetry) (natural protein)”, for which the Kd in test [1] was 3.38 µM and 3.52 µM and 3.14 µM; in test [2], 3.35 µM.
